Patent US12618845B2, “Methods and compositions for protein sequencing” (Quantum-Si Incorporated, priority 2018, dated 2026)
Changes are numbered by the printed parent chain. In names and notes the source's numbering stands.

B1: Synechococcus elongatus ClpS2: amino acid recognition protein, SEQ ID NO: 11 (protein, listed as Synechococcus elongatus)
chain: MSPQPDESVLSILGVPRPCVKKRSRNDAFVLTVLTCSLQAIAAPATAPGTTTTRVRQPYPHFRVIVLDDDVNTFQHVAECLLKYIPGMTGDRAWDLTNQVHYEGAATVWSGPQEQAELYHEQLRREGLTMAPLEAA
B2: Escherichia coli ClpS: amino acid recognition protein, SEQ ID NO: 13 (protein, listed as Escherichia coli)
chain: MGKTNDWLDFDQLAEEKVRDALKPPSMYKVILVNDDYTPMEFVIDVLQKFFSYDVERATQLMLAVHYQGKAICGVFTAEVAETKVAMVNKYARENEHPLLCTLEKA
B3: Escherichia coli ClpS M40A: amino acid recognition protein, SEQ ID NO: 14 (protein, listed as Escherichia coli)
chain: B2 chain with M40A
B4: Thermosynechococcus elongatus ClpS: amino acid recognition protein, SEQ ID NO: 12 (protein, listed as Thermosynechococcus elongatus)
chain: MPQERQQVTRKHYPNYKVIVLNDDFNTFQHVAACLMKYIPNMTSDRAWELTNQVHYEGQAIVWVGPQEQAELYHEQLLRAGLTMAPLEPE
B5: H. sapiens Fyn SH2 domain triple mutant superbinder: amino acid recognition protein, SEQ ID NO: 23 (protein, listed as Homo sapiens)
chain: MGAMDSIQAEEWYFGKLGRKDAERQLLSFGNPRGTFLIRESETVKGAYALSIRDWDDMKGDHVKHYLIRKLDNGGYYITTRAQFETLQQLVQHYSERAAGLSSRLVVPSHK
B6: UBR-box domain from Homo sapiens UBR2: amino acid recognition protein, SEQ ID NO: 33 (protein, listed as Homo sapiens)
chain: MGPLGSLCGRVFKVGEPTYSCRDCAVDPTCVLCMECFLGSIHRDHRYRMTTSGGGGFCDCGDTEAWKEGPYCQKHE
B7: Synechococcus elongatus ClpS1: amino acid recognition protein, SEQ ID NO: 10 (protein, listed as Synechococcus elongatus)
chain: MAVETIQKPETTTKRKIAPRYRVLLHNDDFNPMEYVVMVLMQTVPSLTQPQAVDIMMEAHTNGTGLVITCDIEPAEFYCEQLKSHGLSSSIEPDD
B8: Saccharomyces cerevisiae UBR1: amino acid recognition protein, SEQ ID NO: 18 (protein, listed as Saccharomyces cerevisiae)
chain: MGSVHKHTGRNCGRKFKIGEPLYRCHECGCDDTCVLCIHCFNPKDHVNHHVCTDICTEFTSGICDCGDEEAWNSPLHCKAEEQ
B9: Escherichia coli leucyl/phenylalanyl-tRNA-protein transferase: amino acid recognition protein, SEQ ID NO: 16 (protein, listed as Escherichia coli)
chain: MRLVQLSRHSIAFPSPEGALREPNGLLALGGDLSPARLLMAYQRGIFPWFSPGDPILWWSPDPRAVLWPESLHISRSMKRFHKRSPYRVTMNYAFGQVIEGCASDREEGTWITRGVVEAYHRLHELGHAHSIEVWREDELVGGMYGVAQGTLFCGESMFSRMENASKTALLVFCEEFIGHGGKLIDCQVLNDHTASLGACEIPRRDYLNYLNQMRLGRLPNNFWVPRCLFSPQELE
B10: UBR-box domain from Homo sapiens UBR1: amino acid recognition protein, SEQ ID NO: 32 (protein, listed as Homo sapiens)
chain: MGPLGSLCGRVFKSGETTYSCRDCAIDPTCVLCMDCFQDSVHKNHRYKMHTSTGGGFCDCGDTEAWKTGPFCVNHEP
B11: Saccharomyces cerevisiae GID10: amino acid recognition protein, SEQ ID NO: 31 (protein, listed as Saccharomyces cerevisiae)
chain: MTSLNIMGRKFILERAKRNDNIEEIYTSAYVSLPSSTDTRLPHFKAKEEDCDVYEEGTNLVGKNAKYTYRSLGRHLDFLRPGLRFGGSQSSKYTYYTVEVKIDTVNLPLYKDSRSLDPHVTGTFTIKNLTPVLDKVVTLFEGYVINYNQFPLCSLHWPAEETLDPYMAQRESDCSHWKRFGHFGSDNWSLTERNFGQYNHESAEFMNQRYIYLKWKERFLLDDEEQENQMLDDNHHLEGASFEGFYYVCLDQLTGSVEGYYYHPACELFQKLELVPTNCDALNTYSSGFEIA
B12: Plasmodium falciparum ClpS: amino acid recognition protein, SEQ ID NO: 15 (protein, listed as Plasmodium falciparum)
chain: MFKDLKPFFLCIILLLLLIYKCTHSYNIKNKNCPLNFMNSCVRINNVNKNTNISFPKELQKRPSLVYSQKNFNLEKIKKLRNVIKEIKKDNIKEADEHEKKEREKETSAWKVILYNDDIHNFTYVTDVIVKVVGQISKAKAHTITVEAHSTGQALILSTWKSKAEKYCQELQQNGLTVSIIHESQLKDKQKK
B13: GID4: GID4 evaluated as a potential reagent for proline recognition; species not stated at the place (protein, UniProt Q8IVV7 1-300, looked up)
Glucose-induced degradation …: MCARGQVGRGTQLRTGRPCSQVPGSRWRPERLLRRQRAGGRPSRPHPARARPGLSLPATLLGSRAAAAVPLPLPPALAPGDPAMPVRTECPPPAGASAASAASLIPPPPINTQQPGVATSLLYSGSKFRGHQKSKGNSYDVEVVLQHVDTGNSYLCGYLKIKGLTEEYPTLTTFFEGEIISKKHPFLTRKWDADEDVDRKHWGKFLAFYQYAKSFNSDDFDYEELKNGDYVFMRWKEQFLVPDHTIKDISGASFAGFYYICFQKSAASIEGYYYHRSSEWYQSLNLTHVPEHSAPIYEFR
B14: Agrobacterium tumifaciens ClpS1: amino acid recognition protein, SEQ ID NO: 4 (protein, listed as Agrobacterium tumifaciens)
chain: MIAEPICMQGEGDGEDGGTNRGTSVITRVKPKTKRPNLYRVLLLNDDYTPMEFVIHILERFFQKDREAATRIMLHVHQHGVGECGVFTYEVAETKVSQVMDFARQHQHPLQCVMEKK
B15: Agrobacterium tumifaciens ClpS1 C7S: amino acid recognition protein, SEQ ID NO: 6 (protein, listed as Agrobacterium tumifaciens)
chain: B14 chain with C7S
B16: Agrobacterium tumifaciens ClpS1 C7S C84S C112S: amino acid recognition protein, SEQ ID NO: 7 (protein, listed as Agrobacterium tumifaciens)
chain: B14 chain with C7S, C84S, C112S
B17: Agrobacterium tumifaciens ClpS2 variant 1 C72S: amino acid recognition protein, SEQ ID NO: 5 (protein, listed as Agrobacterium tumifaciens)
chain: MSDSPVDLKPKPKVKPKLERPKLYKVMLLNDDYTPMSFVTVVLKAVFRMSEDTGRRVMMTAHRFGSAVVVVSERDIAETKAKEATDLGKEAGFPLMFTTEPEE

Tests used:
[1] = tested on: N-terminal amino acid of peptides; assay: Single-molecule terminal amino acid discrimination by labeled affinity reagent (dwell time analysis); format: binding; settings: for Terminal amino acid recognition: single molecule traces, dwell time analysis
Description: An adaptor protein involved in proteolytic pathways was identified as a potential candidate for use as a labeled affinity reagent for detecting N-terminal aromatic residues. The adaptor protein, ClpS2 from an α-proteobacterium (A. tumefaciens), was expressed and labeled at an exposed cysteine residue. […] The exposed cysteine residue was labeled with a rhodamine dye (ATTO 532).
Peptides having different N-terminal aromatic residues were prepared to test whether the labeled ClpS2 was capable of N-terminal amino acid discrimination at the single molecule level.
FIG. 19C is a plot showing discriminant pulse durations (time duration of signal peaks) among the three N-terminal residues when reversibly bound by labeled ClpS2. FIG. 19D is a plot showing discriminant interpulse durations (time duration between signal pulses) among the three N-terminal residues. […] Mean pulse duration for the different N-terminal residues is visualized by histograms (A)-(B) and layered histogram (C).

[2] = tested on: amino acid at a terminal position of a polypeptide; settings: amino acid identity at a terminal position of a polypeptide; phospho-Y also at an internal position; cited from earlier work
[3] = molecular target: fluorescently-labeled peptides with N-terminal phospho-tyrosine, tyrosine or phospho-serine (Homo sapiens, UniProt P06241, C239S/C240S/C246S/K204L/S186A/T181V); assay: Single-molecule recognition of post-translationally modified amino acids by immobilized SH2 domain variant
[4] = tested on: immobilized peptide FYPLPWPDDDY with N-terminal phenylalanine; assay: Simultaneous single-molecule recognition with differentially labeled recognition molecules; format: binding; settings: 500 nM each binder
Description: Single peptide molecules containing N-terminal phenylalanine ([…] (SEQ ID NO: 79)) were immobilized in sample wells of a chip. Buffer containing 500 nM each of at ClpS1 (Agrobacterium tumefaciens ClpS1; sequence provided in Table 1) and at ClpS2-V1 (Agrobacterium tumefaciens ClpS2 variant 1; sequence provided in Table 1) was added, where at ClpS1 and at ClpS2-V1 were labeled with Cy3 and Cy3B, respectively. Since the intensity of Cy3B is higher than Cy3, at ClpS2-V1 binding events were readily distinguishable from at ClpS1 binding events.
The pulse duration distributions were distinct for each binder (FIG. 24B) and corresponded to their kinetic profiles as observed in single-binder experiments. Mean pulse duration was 1.3 seconds for at ClpS1 and 1.0 seconds for at ClpS2-V1 (FIG. 24C). Pulse rate was also distinct: 8.1 pulses/min for at ClpS1 and 14.1 pulses/min for at Clp2-V1 (FIG. 24C). Thus, when more than one recognition molecule is included for dynamic recognition of immobilized peptides, the binding characteristics of each recognition molecule (including pulse duration, interpulse duration, and pulse rate) can simultaneously provide information about peptide sequence.

Molecule	Binding Pref. [2]	other results
B1	F, W, Y, L, and V, I	Terminal amino acid recognition [1]: leucine recognition
B2	F, W, Y, L	
B3	F, W, Y, L	
B4	F, W, Y, L	Mean pulse duration ([1]; terminal leucine residue of polypeptides): 0.71 s
B5	phospho-Y	Peptide binding by the immobilized protein ([3]; peptide with N-terminal and penultimate unmodified tyrosines (YY)): not detected; Peptide binding by the immobilized protein ([3]; peptide with N-terminal phospho-serine): not detected; Peptide binding by the immobilized protein ([3]; peptide with N-terminal phospho-tyrosine): detected; Peptide binding by the immobilized protein ([3]; peptide with N-terminal unmodified tyrosine (Y)): not detected
B6	K, R, H	
B7	F, W, Y	
B8	K, R, H	
B9	K, R	
B10	K, R, H	
B11	P, M, V	
B12	F, W, Y, L,	
B13		Terminal amino acid recognition [1]: proline recognition
B14	F, W, Y, L	Terminal amino acid recognition [1]: differentiable recognition of phenylalanine, leucine, tryptophan, and tyrosine; Mean pulse duration [4]: 1.3 s; Pulse rate [4]: 8.1 pulses/min
B15	F, W, Y, L	
B16	F, W, Y, L	
B17	F, W, Y	
